Measured values taken from publication PMC11919764, “Cryo-electron tomography reveals how COPII assembles on cargo-containing membranes” (Nature Structural & Molecular Biology, 2024).

Target: T1, Sec24 (S. cerevisiae, UniProt P40482 1-926)
T1 construct: Sec24, S. cerevisiae; The Sec24 chain of m2; in the assays it stood in the Sec23–Sec24 complex
T1 sequence: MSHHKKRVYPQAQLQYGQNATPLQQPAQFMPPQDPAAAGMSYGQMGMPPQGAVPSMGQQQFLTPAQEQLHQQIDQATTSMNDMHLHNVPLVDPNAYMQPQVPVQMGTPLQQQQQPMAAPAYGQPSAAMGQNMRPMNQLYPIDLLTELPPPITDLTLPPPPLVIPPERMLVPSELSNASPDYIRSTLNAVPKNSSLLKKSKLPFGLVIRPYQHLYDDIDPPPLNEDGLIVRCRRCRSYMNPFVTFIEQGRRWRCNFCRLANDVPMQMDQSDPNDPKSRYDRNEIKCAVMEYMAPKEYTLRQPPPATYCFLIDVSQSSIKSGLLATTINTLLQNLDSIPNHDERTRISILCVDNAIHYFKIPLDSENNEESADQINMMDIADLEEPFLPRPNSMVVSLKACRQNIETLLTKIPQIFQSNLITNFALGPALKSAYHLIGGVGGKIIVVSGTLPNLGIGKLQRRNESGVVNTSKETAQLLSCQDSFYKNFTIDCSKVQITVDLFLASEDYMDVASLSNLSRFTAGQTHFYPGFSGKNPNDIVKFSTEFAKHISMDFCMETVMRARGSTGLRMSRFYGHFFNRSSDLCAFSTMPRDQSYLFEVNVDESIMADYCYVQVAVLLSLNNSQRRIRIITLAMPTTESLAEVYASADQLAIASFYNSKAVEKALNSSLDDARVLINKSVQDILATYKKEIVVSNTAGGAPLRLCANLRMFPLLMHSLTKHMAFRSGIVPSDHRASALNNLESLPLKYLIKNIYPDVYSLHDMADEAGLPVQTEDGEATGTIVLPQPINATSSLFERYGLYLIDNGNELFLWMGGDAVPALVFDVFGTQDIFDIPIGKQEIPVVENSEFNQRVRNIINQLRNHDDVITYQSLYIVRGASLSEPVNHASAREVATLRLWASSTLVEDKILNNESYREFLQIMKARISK
Assay: cryo-EM structure; cryo-ET with subtomogram averaging of COPII budding reactions on GUVs enriched with Sed5 held by its 6xHis-tag on Ni-NTA lipids: 1 μM Sar1, 180 nM Sec23–Sec24, 173 μM Sec13–Sec31, 360 nM Sed5, 1 mM GMP-PNP, 2.5 mM EDTA (pH 8.0), 10% GUVs (v/v); coated tubes; atomic models rigid-body fitted
Details: both partners purified

binding result: binds
B1: Sed5 cytosolic domain (residues 1–319) with C-terminal 6xHis-tag (domain or fragment, S. cerevisiae)
chain: MNIKDRTSEFQQSVLSYKKRNKNFREQQRERLQEKESENFANNTTGNGKSVSEFQKKASGIAHEISSTAQLLSKLAVLAKRKPMFNDNPVEIAELSFLIKRKIYAIEQSLVQLSQLKKTDVNGNTSNQSSKQPSAVQHSKNVVNLLNTQMKNISGSFKDVLEERQRLEMANKDRWQKLTTDTGHAPADDQTQSNHAADLTTYNNSNPFMTSLLDESSEKNNNSSNQGELSFPQNDSQLMLMEEGQLSNNVYLQERNRAVETIESTIQEVGNLFQQLASMVQEQGEVIQRIDANVDDIDLNISGAQRELLKYFDRIKSNRGGG
notes: Sed5, S. cerevisiae S288c, UniProt Q01590, residues 1–319 (transmembrane helix truncated); flexible triple-glycine linker between residue 319 of Sed5 and the 6xHis-tag; Held on GUVs through Ni-NTA tagged lipids by its C-terminal 6xHis-tag, which stands in place of the transmembrane domain; also called 6xHis-tagged Sed5; source: E. coli BL21, purified (Ni-NTA, HiTrap Q, Superdex 200); not shown: …
